Source: PMC4165587, “Comparison of the Structure and Function of Phospholamban and the Arginine-14 Deficient Mutant Associated with Dilated Cardiomyopathy” (PLoS ONE, 2014)

B1: wild type phospholamban (PLBWT), full length, recombinant (natural protein, human, UniProt P26678 1-52, looked up)
chain: MEKVQYLTRSAIRRASTIEMPQQARQKLQNLFINFCLILICLLLICIIVMLL
notes: phospholamban, human, 52 amino acids, full length, non-acetylated; Untagged after TEV cleavage; also called Rec WT; source: E. coli C41(DE3), MBP fusion (pMAL c2X), purified on amylose, cleaved with TEV protease, chloroform/methanol extraction; not shown: MBP, N-terminal, cleaved
B2: phospholamban with a deletion of arginine at position 14 (PLBR14Δ), full length, recombinant (natural protein, human, UniProt P26678 1-52, looked up)
chain: MEKVQYLTRSAIRASTIEMPQQARQKLQNLFINFCLILICLLLICIIVMLL
notes: phospholamban, human, full length, non-acetylated, with the deletion of Arg14 that is associated with human dilated cardiomyopathy; Made from the human PLBWT DNA by site-directed ligase-independent mutagenesis; A synthetic full-length PLBR14Δ was also bought (Activotec), but the experiments written here name the recombinant protein; also called Rec R14Δ; PLBR14D; source: E. coli C41(DE3), MBP …

Target: the molecule itself
Assay: SDS-PAGE; recombinant PLB in isolation, solubilised in LDS sample buffer; 4-12% Bolt Bis-Tris Plus gel, MES SDS running buffer; Coomassie stain

| Protein | stoichiometry N |
| --- | --- |
| B1 | 5 |
| B2 | 5 |
